Test results published in US20210063414A1, “METHODS FOR PREVENTING AND/OR TREATING BONE LOSS CONDITIONS BY MODULATING IRISIN” (Dana-Farber Cancer Institute, Inc., priority 2018, published 2021).

Experiments:
[1] = Half-life of recombinant his-tag irisin in vivo, plasma immunoblot against his-tag; details: C57BL/6 mice, 1 mg/kg I.P.
Experimental: C57BL/6 mice were injected with irisin (1 mg/kg, I.P.) or sterilized PBS and blood was collected at indicated time point. Irisin in plasma was detected using immunoblot analysis against his-tag.

[2] = molecular target: T1, MLO-Y4 cell surface proteins (Mus musculus, UniProt P39654); assay: Crosslinking/co-immunoprecipitation/mass spectrometry (TMT quantitative proteomics) to identify irisin receptors; type: binding; details: co-precipitated protein Alox15 (LOX15_MOUSE)
T1 construct: endogenous in cells; host or cells: MLO-Y4
T1 sequence (P39654 1-663): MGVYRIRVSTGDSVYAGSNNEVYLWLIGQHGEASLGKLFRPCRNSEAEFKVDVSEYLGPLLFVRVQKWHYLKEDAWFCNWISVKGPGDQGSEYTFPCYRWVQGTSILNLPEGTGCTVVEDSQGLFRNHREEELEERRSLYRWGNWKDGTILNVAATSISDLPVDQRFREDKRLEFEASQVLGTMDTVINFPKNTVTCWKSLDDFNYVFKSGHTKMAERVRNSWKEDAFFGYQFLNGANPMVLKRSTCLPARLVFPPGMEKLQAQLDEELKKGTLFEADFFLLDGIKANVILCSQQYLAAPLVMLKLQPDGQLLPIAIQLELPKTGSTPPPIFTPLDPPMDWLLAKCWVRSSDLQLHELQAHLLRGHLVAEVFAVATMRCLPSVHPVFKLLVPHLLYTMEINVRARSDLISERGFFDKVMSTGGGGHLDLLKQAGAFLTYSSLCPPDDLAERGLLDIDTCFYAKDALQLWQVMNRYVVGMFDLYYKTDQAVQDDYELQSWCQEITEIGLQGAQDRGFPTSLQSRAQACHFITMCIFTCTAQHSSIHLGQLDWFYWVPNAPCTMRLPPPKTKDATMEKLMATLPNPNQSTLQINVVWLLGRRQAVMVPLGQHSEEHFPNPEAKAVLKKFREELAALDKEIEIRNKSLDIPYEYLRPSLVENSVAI
Outline: (§1)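 Mouse MLO-Y4 cells were switched to serum-free FreeStyle medium for 4 h, chilled, then exposed to 10 nM His-tagged irisin (or adipsin as control) for 20 min. Cells were crosslinked with 1.5 mM DTSSP (30 min, ice), and bound proteins were pulled down on Ni-NTA and eluted with 250 mM imidazole. Eluates were separated by SDS-PAGE, trypsin-digested in gel, TMT 6-plex labelled and quantified by MS3-based LC-MS/MS on an Orbitrap Fusion Lumos.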

[3] = molecular target: T2, MLO-Y4 cell surface proteins (Mus musculus, UniProt P61161); assay: as above; type: binding; details: co-precipitated protein Actr2 (ARP2_MOUSE)
T2 construct: endogenous in cells; host or cells: MLO-Y4
Outline: as §1

[4] = molecular target: T3, MLO-Y4 cell surface proteins (Mus musculus, UniProt Q8VCI5); assay: as above; type: binding; details: co-precipitated protein Pex19 (PEX19_MOUSE)
T3 construct: endogenous in cells; host or cells: MLO-Y4
T3 sequence (Q8VCI5 1-299): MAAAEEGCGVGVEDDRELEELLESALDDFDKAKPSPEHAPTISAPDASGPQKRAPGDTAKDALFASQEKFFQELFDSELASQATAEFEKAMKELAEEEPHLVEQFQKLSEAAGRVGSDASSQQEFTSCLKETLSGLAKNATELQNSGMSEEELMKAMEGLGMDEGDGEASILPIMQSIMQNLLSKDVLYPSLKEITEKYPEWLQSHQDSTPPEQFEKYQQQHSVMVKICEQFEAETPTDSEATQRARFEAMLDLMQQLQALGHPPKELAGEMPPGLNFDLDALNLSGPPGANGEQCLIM
Outline: as §1

B1: irisin: secreted cleaved form of FNDC5; recombinant human/mouse irisin with C-terminal his tag produced in HEK293 cells (protein)
chain: DSPSAPVNVTVRHLKANSAVVSWDVLEDEVVIGFAISQQKKDVRMLRFIQEVNTTTRSCALWDLEEDTEYIVHVQAISIQGQSPASEPVLFKTPREAEKMASKNKDEVTMKE
modifications: left off: small tags and cut ends
notes: secreted cleaved form of FNDC5; recombinant human/mouse irisin with C-terminal his tag produced in HEK293 cells
half-life in vivo [1]: less than an hour
TMT signal-to-noise ratio [2]: 9.028
irisin/adipsin TMT signal-to-noise ratio [2]: 0.064
TMT signal-to-noise ratio [3]: 84.7644
irisin/adipsin TMT signal-to-noise ratio [3]: 0.552
TMT signal-to-noise ratio [4]: 23.3696
irisin/adipsin TMT signal-to-noise ratio [4]: 0.386
